In general, Km refers to the concentration of substrate that gives half-maximal velocity. By Vmax is commonly meant the top rate of the reaction or transport when substrate is in excess. What is called kcat is the number of substrate molecules converted per active site and unit of time at saturation. In general, kcat/Km refers to the second-order rate constant that governs catalysis at low substrate concentration.

We go through two proteins from PMC10981699, “Caldomycin, a new guanidopolyamine produced by a novel agmatine homocoupling enzyme involved in homospermidine biosynthesis” (Scientific Reports, 2024).

Substrate in series [1]: N=C(N)NCCCCN
In words: homospermidine formation by HPLC, coupled with TtSpeBap. The series is classed as biochemical, Thermus thermophilus. Conditions: 50 mM Tris-HCl pH 8.5, 1 mM NAD+, 10 µM MnCl2, 65 °C, TtSpeBap as coupling enzyme, agmatine is both donor and acceptor.

Substrate in series [2]: N=C(N)NCCCCNCCCCNC(=N)N
In words: urea release, Quantichrome urea assay. Conditions: assay as in ref. 26. The series is classed as biochemical, Thermus thermophilus. From the text: urea release, Quantichrome urea assay on TtSpeBap (aminopropylagmatine ureohydrolase)

B1: CdmS (caldomycin synthase) (Thermus thermophilus HB8; V6M) (protein)
chain: MQKKELLSTPVVPIDIKAFDAGPILEAMGKTAFQARNLHRAAEIYLRMLEDDCAVILTLAGSLVSAGQGLIVHDLIRKGLVDVIVATGANIVDQDFFEALGHRHYQGDPRADDEALRRLWIDRIYDTYIDEEELRHTDYTVAEIADGLEPRPYSSREFIWHMGRYLAERGLGEKSIVRAAYEEGVPIFVPAFSDSSAGFGLVYHQVKRPEAHVTIDSVADFRELTEIKLKAGTTGLVMLGGGVPKNFAQDIVVAAEVLGHRVEMHKYAIQITVADERDGGLSGSTLSEAQSWGKVDARLSQMVFAEATLAFPLLASYVWHRAPARAKRRYAELFREKAPA
notes: full-length gene in pET21b (NdeI/EcoRI), E. coli BL21(DE3) pLysS; no tag stated; heat treatment and Butyl column; 38 kDa on SDS-PAGE
On to B1, for which the Km in series [1] amounted to 95 ± 6 µM.

B2: TtSpeBap (aminopropylagmatine ureohydrolase) (Thermus thermophilus HB8) (protein)
chain: MRLVFGEKDTPYEEARVVVLPVPYDLSLSFLPGARRGPEAILLASRELEPFLLELGAAPEEVGIHAAEPVPWVAGMAEESHRLIREEALRHLRAGKWVVALGGDHSVTHPLVQAHREALGDFSLLHVDAHADLYPEWQGSVYSHASPFYRLLTEGFPLVQVGIRAMDRDSLRLARKKGVALFPAHRIHREGLPLDEILRALGKRVYISLDFDALDPSLMPSVGTPLPGGLSYRQVVDLLEAVFREKEVVGMDFVELSPNGQFHAEMTAAQLVYHAIGLKGLQAGWLSREVDHI
For the protein B2, in series [2], the Michaelis constant (Km) is 3840 ± 840 µM, the Vmax was 2920 µmol/min/mg, the kcat was determined as 1580 ± 230 s⁻¹ and the kcat/Km was found to be 419000 ± 32000 M⁻¹ s⁻¹.
